The results in this text go back to patent publication US20150376264A1.

Where “and” joins values, the source holds several entries; their conditions need not be identical. Equal entries are not always repeated. Where two headings read alike, the source gives them in different places.

What all share (test): cell-based or functional assay
Test [1] deals with relaxin receptor (LGR7).
Test [2] deals with relaxin receptor (LGR7). The source holds these as a separate data set.
The next test concerns the target Leptin receptor.

With Relaxin-2 (ligand), in the test with relaxin receptor (LGR7) [1], the Fluorescence reading (luciferase assay) at 0.00035 uM was 14600; the Fluorescence reading (luciferase assay) at 0.003153 uM turned out to be 24500; the Fluorescence reading (luciferase assay) at 0.00946 uM was 30200 and 24900 and 28500. In addition, in the test with relaxin receptor (LGR7) [2], the Fluorescence reading (luciferase assay) at 0.000000481 uM was 1440 and 480 and 560; the Fluorescence reading (luciferase assay) at 0.00000144 uM is 2880 and 2160 and 1280; the Fluorescence reading (luciferase assay) at 0.00000433 uM was 4400 and 2400; the Fluorescence reading (luciferase assay) at 0.000013 uM was 10800 and 8960 and 9840. In addition, in the test with relaxin receptor (LGR7) [2], the Fluorescence reading (luciferase assay) at 0.0000389 uM was 12100 and 7120 and 12800; the Fluorescence reading (luciferase assay) at 0.000117 uM was 18500 and 18200; the Fluorescence reading (luciferase assay) at 0.00035 uM is 21500 and 19100; the Fluorescence reading (luciferase assay) at 0.001051 uM was 29000 and 26800. Besides, the Fluorescence reading (luciferase assay) at 0.003153 uM in the test with relaxin receptor (LGR7) [2] is 23300 and 23700.
As to “human leptin (R&D) (from UniProt P41159 22-167) (ligand)”, in the test with Leptin receptor, the EC50 (Baf3-LepR cell proliferation, AlamarBlue) is 0.352 nM; the Fluorescent reading (AlamarBlue) at 0.01 pg/ml (6.25E-08 nM) was 2500 and 2520; the Fluorescent reading (AlamarBlue) at 0.1 pg/ml amounted to 1700; the Fluorescent reading (AlamarBlue) at 0.1 pg/ml (6.25E-07 nM) came out at 2010. Also, in the test with Leptin receptor, the Fluorescent reading (AlamarBlue) at 10 pg/ml was 924; the Fluorescent reading (AlamarBlue) at 10 pg/ml (6.25E-05 nM) was determined as 2110; the Fluorescent reading (AlamarBlue) at 100 pg/ml (6.25E-03 nM) was 725 and 1740; the Fluorescent reading (AlamarBlue) at 1000 pg/ml (0.0625 nM) is 7000 and 5190. For the same substance, in the test with Leptin receptor, the Fluorescent reading (AlamarBlue) at 10000 pg/ml (0.625 nM) is 26000 and 16500; the Fluorescent reading (AlamarBlue) at 100000 pg/ml (6.25 nM) is 29000 and 15300; the Fluorescent reading (AlamarBlue) at 1000000 pg/ml (62.5 nM) is 33500 and 26400; the Fluorescent reading (AlamarBlue) at 10000000 pg/ml (6250 nM) was 38300 and 32400.
